Key:
[1] = target: factor present in the activated CD3+ selected human T-cell conditioned media (human); test: cell-based or functional assay
[2] = target: MPL-zalpha11 polypeptide chimera (MPL extracellular and TM domain fused to the zalpha11 intracellular signaling domain), expressed on BaF3 cells (human) (UniProt P40238); test: cell-based or functional assay

Substance	inhibition of BaF3/Zalpha11 cell growth (Alamar Blue), concentration giving complete inhibition [1] [µg/mL]	titration of soluble receptor, lowest concentration giving complete inhibition of BaF3/Zalpha11 growth [1] [µg/mL]	proliferation of BaF3/MPL-zalpha11 cells (Alamar Blue) (fold over background) [2]
zalpha11-Fc4 (mutant) soluble receptor (zalpha11 extracellular domain fused C-terminally to human IgG/Fc) (from UniProt Q9HBE5 20-237) (Fc fusion)	10	1.5	
thrombopoietin (TPO) (ligand)			10

— patent publication EP2105446A2
